Laboratory results published in patent publication US20090203602A1 (AMERICAN TYPE CULTURE COLLECTION, published 2009).

Tests used:
Experiment in all cases: cell-based or functional assay
[1] = target: GSK3β (h) (human, UniProt P49841 1-420, limits assumed)
[2] = target: PKBβ (h) (human, UniProt P31751 1-481, limits assumed)
[3] = target: IR (h) (human, UniProt P06213 1005-1310, limits assumed)
[4] = target: MAPK2 (h) (human, UniProt P28482 1-360, limits assumed)
[5] = target: PKCβII (h) (human, UniProt P05771-2 1-673)
PKCβII (h), sequence (P05771 other isoform, or with tags, fused parts or gaps limits assumed): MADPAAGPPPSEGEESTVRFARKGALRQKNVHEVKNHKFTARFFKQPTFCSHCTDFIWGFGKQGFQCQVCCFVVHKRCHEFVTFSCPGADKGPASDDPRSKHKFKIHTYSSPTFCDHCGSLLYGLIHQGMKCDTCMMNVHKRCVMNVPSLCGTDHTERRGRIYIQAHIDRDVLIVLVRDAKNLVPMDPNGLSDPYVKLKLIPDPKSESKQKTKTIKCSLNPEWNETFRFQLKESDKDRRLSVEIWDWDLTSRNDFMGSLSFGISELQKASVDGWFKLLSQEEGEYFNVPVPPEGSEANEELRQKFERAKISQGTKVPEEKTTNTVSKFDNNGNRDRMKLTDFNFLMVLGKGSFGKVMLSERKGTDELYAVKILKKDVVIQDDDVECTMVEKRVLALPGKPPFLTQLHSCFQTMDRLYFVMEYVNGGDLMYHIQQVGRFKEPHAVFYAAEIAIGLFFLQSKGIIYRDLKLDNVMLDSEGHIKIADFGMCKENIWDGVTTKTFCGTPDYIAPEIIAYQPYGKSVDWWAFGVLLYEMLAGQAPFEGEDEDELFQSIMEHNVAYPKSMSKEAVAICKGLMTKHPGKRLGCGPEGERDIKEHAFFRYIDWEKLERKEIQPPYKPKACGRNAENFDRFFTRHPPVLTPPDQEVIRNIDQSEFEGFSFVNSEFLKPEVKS

[6] = target: RPS6KB1 (p70S6K) Ribosomal protein S6 kinase, 70 kDa, polypeptide 1 (human, UniProt P23443 1-421, limits assumed)
RPS6KB1 (p70S6K) Ribosomal protein S6 kinase, 70 kDa, polypeptide 1, sequence (P23443 1-421 limits assumed): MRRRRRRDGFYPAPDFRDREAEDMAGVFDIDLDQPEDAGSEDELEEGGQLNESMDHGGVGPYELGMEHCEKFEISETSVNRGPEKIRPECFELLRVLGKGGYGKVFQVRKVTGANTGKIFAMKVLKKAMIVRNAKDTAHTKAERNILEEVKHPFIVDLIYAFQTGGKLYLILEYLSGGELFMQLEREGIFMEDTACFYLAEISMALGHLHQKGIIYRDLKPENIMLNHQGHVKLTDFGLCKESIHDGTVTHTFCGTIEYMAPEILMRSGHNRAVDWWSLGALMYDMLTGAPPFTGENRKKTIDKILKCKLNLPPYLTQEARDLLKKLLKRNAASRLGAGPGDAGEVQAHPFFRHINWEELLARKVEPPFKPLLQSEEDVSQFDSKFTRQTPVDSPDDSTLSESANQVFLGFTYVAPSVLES

[7] = target: T1, SGK (SGK1) Serum/glucocorticoid regulated kinase (human, UniProt O00141 60-431, limits assumed)
T1 sequence (looked up): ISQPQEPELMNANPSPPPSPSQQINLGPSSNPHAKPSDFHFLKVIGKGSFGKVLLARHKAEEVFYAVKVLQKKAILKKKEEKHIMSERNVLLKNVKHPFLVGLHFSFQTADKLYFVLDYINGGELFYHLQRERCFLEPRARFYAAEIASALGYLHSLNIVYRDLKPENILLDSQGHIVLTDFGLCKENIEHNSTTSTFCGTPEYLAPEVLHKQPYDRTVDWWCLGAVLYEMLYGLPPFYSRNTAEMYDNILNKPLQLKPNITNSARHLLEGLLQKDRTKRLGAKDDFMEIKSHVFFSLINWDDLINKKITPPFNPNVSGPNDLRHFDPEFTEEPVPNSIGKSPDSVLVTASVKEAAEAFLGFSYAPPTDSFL

[8] = target: T2, PDK1 (h) (human, UniProt O15530 1-556, limits assumed)
T2 sequence (looked up): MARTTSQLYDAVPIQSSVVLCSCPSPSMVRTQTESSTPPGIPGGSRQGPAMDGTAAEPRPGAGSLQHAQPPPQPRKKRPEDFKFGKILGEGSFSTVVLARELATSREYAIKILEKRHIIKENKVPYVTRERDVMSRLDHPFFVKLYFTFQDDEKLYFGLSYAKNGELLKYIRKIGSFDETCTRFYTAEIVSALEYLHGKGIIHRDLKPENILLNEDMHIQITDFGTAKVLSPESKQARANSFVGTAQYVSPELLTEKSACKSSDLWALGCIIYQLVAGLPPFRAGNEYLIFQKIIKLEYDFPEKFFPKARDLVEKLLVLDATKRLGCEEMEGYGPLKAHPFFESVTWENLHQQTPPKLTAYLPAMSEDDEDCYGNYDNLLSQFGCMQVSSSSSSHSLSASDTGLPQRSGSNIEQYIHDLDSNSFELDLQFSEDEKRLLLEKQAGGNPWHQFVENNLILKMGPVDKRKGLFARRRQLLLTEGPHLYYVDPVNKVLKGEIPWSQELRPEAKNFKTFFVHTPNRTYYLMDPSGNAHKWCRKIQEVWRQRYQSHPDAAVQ

[9] = target: MAPK1 (h) (human, UniProt P28482)
MAPK1 (h), sequence (P28482 2-360): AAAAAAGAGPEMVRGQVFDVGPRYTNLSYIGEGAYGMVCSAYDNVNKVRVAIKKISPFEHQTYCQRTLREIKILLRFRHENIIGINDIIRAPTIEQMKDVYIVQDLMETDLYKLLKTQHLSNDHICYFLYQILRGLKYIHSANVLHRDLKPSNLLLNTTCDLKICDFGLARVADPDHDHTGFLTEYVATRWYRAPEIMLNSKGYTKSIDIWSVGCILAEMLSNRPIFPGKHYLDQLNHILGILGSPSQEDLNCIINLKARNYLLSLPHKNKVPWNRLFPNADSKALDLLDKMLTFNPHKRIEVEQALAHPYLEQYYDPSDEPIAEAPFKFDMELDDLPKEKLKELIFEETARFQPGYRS

[10] = target: T3, PKCζ (h) (human, UniProt Q05513 1-592, limits assumed)
T3 sequence (looked up): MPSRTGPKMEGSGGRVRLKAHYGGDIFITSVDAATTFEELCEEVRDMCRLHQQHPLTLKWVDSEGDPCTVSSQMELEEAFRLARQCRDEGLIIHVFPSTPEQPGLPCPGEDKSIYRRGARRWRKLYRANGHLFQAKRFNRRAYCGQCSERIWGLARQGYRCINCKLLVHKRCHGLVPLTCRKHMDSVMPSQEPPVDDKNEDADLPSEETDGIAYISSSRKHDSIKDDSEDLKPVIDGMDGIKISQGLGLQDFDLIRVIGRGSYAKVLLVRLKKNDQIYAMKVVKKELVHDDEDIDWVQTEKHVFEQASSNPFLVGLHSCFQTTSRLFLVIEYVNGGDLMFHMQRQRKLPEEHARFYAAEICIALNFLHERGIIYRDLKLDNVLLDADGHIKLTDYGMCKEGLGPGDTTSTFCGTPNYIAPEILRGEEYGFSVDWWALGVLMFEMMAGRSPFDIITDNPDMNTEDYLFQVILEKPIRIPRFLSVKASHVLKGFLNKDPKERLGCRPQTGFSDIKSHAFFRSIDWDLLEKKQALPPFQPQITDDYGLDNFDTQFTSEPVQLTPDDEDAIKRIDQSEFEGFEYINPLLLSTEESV

[11] = target: PKA(h) (human, UniProt P17612 1-351)
[12] = target: T4, IKKβ(h) (human, UniProt O14920 1-756, limits assumed)
T4 sequence (looked up): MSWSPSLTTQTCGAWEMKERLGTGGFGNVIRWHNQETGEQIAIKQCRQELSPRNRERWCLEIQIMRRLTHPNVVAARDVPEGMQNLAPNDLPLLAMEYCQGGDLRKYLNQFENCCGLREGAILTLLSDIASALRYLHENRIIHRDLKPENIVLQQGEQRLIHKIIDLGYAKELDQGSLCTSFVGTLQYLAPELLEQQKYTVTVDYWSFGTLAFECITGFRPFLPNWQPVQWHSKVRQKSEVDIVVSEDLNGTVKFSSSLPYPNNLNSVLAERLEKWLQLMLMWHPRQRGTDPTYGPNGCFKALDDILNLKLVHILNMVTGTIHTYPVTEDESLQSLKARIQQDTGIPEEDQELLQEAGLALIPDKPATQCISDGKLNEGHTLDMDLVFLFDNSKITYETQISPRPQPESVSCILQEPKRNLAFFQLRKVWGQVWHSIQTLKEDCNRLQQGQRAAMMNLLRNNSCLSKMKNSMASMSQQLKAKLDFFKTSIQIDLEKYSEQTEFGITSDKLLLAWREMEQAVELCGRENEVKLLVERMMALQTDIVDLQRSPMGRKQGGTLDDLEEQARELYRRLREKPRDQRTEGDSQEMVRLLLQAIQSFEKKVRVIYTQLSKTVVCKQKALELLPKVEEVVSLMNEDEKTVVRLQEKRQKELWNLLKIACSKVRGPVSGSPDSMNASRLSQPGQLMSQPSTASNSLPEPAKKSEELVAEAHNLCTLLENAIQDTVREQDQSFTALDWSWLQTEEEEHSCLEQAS

MAPK2 (h), sequence (P28482 whole entry): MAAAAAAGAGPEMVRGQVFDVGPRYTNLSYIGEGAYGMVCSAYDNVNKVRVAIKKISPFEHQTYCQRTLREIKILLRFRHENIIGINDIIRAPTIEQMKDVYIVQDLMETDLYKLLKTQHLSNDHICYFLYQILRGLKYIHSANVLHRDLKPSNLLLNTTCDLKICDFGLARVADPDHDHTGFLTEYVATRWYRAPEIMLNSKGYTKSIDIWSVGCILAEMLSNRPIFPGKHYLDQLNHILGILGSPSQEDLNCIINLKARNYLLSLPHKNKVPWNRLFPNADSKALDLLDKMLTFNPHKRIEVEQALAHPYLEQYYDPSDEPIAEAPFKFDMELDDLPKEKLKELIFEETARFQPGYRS
IR (h), sequence (P06213 1005-1310 limits assumed): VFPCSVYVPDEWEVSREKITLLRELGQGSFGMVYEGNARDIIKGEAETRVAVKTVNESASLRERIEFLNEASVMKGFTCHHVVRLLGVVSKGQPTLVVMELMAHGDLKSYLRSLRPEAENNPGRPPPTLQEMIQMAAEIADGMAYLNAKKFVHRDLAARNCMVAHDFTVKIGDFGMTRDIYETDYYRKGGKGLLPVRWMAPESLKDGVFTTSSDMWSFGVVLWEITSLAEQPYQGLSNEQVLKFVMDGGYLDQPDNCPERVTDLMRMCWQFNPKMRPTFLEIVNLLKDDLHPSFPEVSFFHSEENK
GSK3β (h), sequence (P49841 whole entry): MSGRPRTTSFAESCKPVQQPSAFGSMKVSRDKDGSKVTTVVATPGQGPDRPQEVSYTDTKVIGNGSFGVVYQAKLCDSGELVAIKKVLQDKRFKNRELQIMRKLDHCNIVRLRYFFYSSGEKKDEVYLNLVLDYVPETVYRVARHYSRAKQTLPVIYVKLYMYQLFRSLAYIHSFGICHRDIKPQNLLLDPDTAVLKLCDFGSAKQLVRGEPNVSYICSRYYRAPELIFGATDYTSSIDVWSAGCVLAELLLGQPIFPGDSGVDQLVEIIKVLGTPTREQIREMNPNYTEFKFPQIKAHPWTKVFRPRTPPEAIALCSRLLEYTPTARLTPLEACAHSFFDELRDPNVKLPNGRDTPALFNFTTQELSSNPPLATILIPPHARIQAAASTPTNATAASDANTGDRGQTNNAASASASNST
PKBβ (h), sequence (P31751 whole entry): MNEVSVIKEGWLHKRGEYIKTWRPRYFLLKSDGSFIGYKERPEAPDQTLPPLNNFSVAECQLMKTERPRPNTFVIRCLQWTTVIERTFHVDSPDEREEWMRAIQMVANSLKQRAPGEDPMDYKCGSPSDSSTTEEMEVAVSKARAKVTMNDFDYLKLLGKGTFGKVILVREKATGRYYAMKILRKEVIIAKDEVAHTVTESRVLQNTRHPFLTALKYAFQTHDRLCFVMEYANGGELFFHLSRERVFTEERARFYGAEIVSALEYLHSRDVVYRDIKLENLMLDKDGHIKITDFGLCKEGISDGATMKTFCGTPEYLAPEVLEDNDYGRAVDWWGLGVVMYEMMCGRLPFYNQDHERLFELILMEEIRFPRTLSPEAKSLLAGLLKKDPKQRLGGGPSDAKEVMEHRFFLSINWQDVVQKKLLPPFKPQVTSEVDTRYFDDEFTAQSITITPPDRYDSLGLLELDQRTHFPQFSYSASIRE

SGRPPMIVWFNRPFLIAVSHTHGQTILFMAKVINPVGA [D3 peptide]
D3 at 0.1 µM % activity [1]: 101 % activity | D3 at 1 µm % activity [1]: 100 % activity | D3 at 0.1 µM % activity [2]: 63 % activity | D3 at 1 µm % activity [2]: 12 % activity | D3 at 0.1 µM % activity [3]: 96 % activity | D3 at 1 µm % activity [3]: 103 % activity | D3 at 0.1 µM % activity [4]: 96 % activity | D3 at 1 µm % activity [4]: 96 % activity | D3 at 0.1 µM % activity [5]: 101 % activity | D3 at 1 µm % activity [5]: 103 % activity | D3 at 0.1 µM % activity [6]: 73 % activity | D3 at 1 µm % activity [6]: 22 % activity | D3 at 0.1 µM % activity [7]: 74 % activity | D3 at 1 µm % activity [7]: 5 % activity | D3 at 0.1 µM % activity [8]: 98 % activity | D3 at 1 µm % activity [8]: 108 % activity | D3 at 0.1 µM % activity [9]: 86 % activity | D3 at 1 µm % activity [9]: 92 % activity | D3 at 0.1 µM % activity [10]: 95 % activity | D3 at 1 µm % activity [10]: 42 % activity | D3 at 0.1 µM % activity [11]: 115 % activity | D3 at 1 µm % activity [11]: 105 % activity | D3 at 0.1 µM % activity [12]: 103 % activity | D3 at 1 µm % activity [12]: 71 % activity
